# In US20100196385A1 (AstraZeneca / MedImmune, published 2010):
# T1: human Dll1 (human, UniProt O00548 18-723)
# T1 construct: whole, on cells
# T1 sequence (looked up): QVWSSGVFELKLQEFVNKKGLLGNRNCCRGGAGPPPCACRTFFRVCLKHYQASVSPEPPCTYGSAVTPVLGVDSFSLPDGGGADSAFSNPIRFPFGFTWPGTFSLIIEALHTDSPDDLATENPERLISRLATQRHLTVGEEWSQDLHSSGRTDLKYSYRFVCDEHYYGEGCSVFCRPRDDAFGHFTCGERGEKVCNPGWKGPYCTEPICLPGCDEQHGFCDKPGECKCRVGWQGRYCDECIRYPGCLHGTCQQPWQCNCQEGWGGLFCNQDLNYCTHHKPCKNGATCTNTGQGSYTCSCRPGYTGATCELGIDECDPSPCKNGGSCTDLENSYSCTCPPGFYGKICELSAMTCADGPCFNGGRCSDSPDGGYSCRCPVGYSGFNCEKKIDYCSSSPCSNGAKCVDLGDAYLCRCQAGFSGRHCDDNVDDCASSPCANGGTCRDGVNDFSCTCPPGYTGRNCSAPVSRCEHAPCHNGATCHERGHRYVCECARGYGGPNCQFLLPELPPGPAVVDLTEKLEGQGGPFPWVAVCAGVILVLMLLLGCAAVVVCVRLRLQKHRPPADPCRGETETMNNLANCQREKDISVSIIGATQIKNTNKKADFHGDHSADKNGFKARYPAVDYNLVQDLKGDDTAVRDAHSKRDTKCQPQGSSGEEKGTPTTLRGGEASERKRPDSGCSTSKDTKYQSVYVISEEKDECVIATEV
# B1: 1D4 (antibody, IgG4, V domains shown)
# VH: QLQLQESGPGLVKPSETLSLTCTVSGGSISSSSYYWGWIRQPPGKGLEWIGSFYYSRSTYYNPSLKSRVTISVDTSKNQFSLKLSSVTAADTAVHYCARGSIAVPDAFDIWGQGTMVTVSS
# VL: SYELTQPPSVSVSPGQTASITCSGDKLGDKFACWYQQKPGHSPVLVVYQDNKRPSGIPERFSGSNSGNSATLTISGTQAMDEADYYCQAWDSNTAVFGGGTKLTVL
# notes: Fully human XenoMouse antibody; also used where no isotype is printed
# B2: 4B3 (antibody, IgG4, V domains shown)
# VH: QVQLVQSGAEVRKSGASVKVSCKASGYSFTTYDINWVRQATGQGLEWMGWMNPNSGYTDYAQKFQGRVTLTRNMSIDTAYMELSSLRSEDTAVYYCARAYYYDSSAYYLFDYWGQGTLVTVSS
# VL: DIQMTQSPSSLSASVGDRVTITCRASQGISNYLAWFQQKPGKAPKSLIYAASSLQSGVPSKFSGSGSGTDFTLTISSLQPEDFATYFCQQYISYPLTFGGGTKVEI
# notes: Fully human; also used where no isotype is printed
# B3: 3A7 (antibody, IgG4, V domains shown)
# VH: EVQVVESGGGLVQPGGSLRLSCEASGFTFSNYWMIWVRQAPGKGLEWVASIKEDGSEKYYVDSVKGRFTISRDNAKSSLYLQMNSLRAEDTAVYYCVRDWELRGHYYYHGMDVWGQGTTVTVSS
# VL: DIQMTQSPSSLSASVGDRVTITCRASLDIRNDLGWFLQKPGKAPKRLIYAASSLQSGVPSRFSGSGSGTEFTLTINSLQPEDFATYYCLQHRNYPFTFGPGTKVDFK
# notes: as for B2
# B4: 1E4 (antibody, IgG2, V domains shown)
# VH: QVQLVESGGGVVQPGRSLRLSCAASGFTFSSYGMHWVRQAPGKGLEWVAVTWYDGSNKYYADSVKGRFTISRDNSKNTLYLQMNSLRAEDTAVYYCARENCSSTSCYYTVTTDYYGMDVWGQGTTVTVSS
# VL: EIVLTQSPGTLSLSPGERATLSCRASQRVSSSYLTWYQQKPGQAPRLLIYGASIRATGIPDRFSGSGSGTDFTLTITRLEPEDFAVYFCQQCYTSPITFGQGTRLDIK
# notes: as for B2
# Molecular target: DLL4 extracellular domain (R&D systems, catalog #1506-D4/CF) (UniProt Q9NR61 27-529, limits assumed)
# Assay: cell-based or functional assay
# Sequence of DLL4 extracellular domain (R&D systems, catalog #1506-D4/CF) (Q9NR61 27-529 limits assumed): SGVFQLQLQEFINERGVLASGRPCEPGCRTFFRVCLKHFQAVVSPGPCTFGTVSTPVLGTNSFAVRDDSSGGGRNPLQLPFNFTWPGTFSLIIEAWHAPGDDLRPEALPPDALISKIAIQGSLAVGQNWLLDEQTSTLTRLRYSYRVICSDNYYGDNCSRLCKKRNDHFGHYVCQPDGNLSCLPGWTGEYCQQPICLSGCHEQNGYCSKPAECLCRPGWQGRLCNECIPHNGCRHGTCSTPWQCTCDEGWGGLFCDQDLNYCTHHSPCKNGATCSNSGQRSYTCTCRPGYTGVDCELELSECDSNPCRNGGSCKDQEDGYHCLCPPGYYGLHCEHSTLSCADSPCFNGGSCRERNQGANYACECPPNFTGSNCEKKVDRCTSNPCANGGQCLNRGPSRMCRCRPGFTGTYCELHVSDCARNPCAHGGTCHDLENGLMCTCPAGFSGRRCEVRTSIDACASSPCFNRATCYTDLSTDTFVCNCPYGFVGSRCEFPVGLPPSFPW
"% inhibition 1 µg/ml, AVERAGE (HUVEC proliferation on coated DLL4)","% inhibition 1 µg/ml, N = 1 (HUVEC proliferation on coated DLL4)","% inhibition 1 µg/ml, N = 2 (HUVEC proliferation on coated DLL4)","% inhibition 10 µg/ml, AVERAGE (HUVEC proliferation on coated DLL4)","% inhibition 10 µg/ml, N = 1 (HUVEC proliferation on coated DLL4)","% inhibition 10 µg/ml, N = 2 (HUVEC proliferation on coated DLL4)",Binder
45%,43%,46%,72%,73%,71%,B1
31%,20%,41%,44%,38%,49%,B2
65%,50%,80%,90%,74%,106%,B3
74%,73%,75%,82%,81%,82%,B4

# Molecular target: T1, human Dll1
# Assay: FACS, 15 µg/ml, 293T cells with human Dll1
# Description: (§1) The ability of the purified antibodies to bind to human Jagged1 and Dll1 was determined by FACS analysis. […] Cells were resuspended in PBS containing 2% FCS and seeded at 50000 cells/well into V-bottomed plates. Anti-DLL4 antibodies diluted in PBS containing 2% FCS were added at a final concentration of 5 or 15 μg/ml and plates were incubated for 1 h at 4° C. […] Data was analyzed by comparing the shift in geometric mean fluorescence in the mock-transfected cells to that observed in the Jagged1- or Dll1-transfected cells and is shown in Tables 16 and 17.
row,Dll1/293T X Geo mean,Binder
1,35.3,B1
2,30.6,B2
3,36.8,B3
4,31.7,B4

# Molecular target: T2, human Jagged1 (human, UniProt P78504 34-1218)
# T2 construct: whole, on cells
# Assay: FACS, 5 µg/ml, 293T cells with human Jagged1
# Description: as §1
# T2 sequence (P78504 34-1218): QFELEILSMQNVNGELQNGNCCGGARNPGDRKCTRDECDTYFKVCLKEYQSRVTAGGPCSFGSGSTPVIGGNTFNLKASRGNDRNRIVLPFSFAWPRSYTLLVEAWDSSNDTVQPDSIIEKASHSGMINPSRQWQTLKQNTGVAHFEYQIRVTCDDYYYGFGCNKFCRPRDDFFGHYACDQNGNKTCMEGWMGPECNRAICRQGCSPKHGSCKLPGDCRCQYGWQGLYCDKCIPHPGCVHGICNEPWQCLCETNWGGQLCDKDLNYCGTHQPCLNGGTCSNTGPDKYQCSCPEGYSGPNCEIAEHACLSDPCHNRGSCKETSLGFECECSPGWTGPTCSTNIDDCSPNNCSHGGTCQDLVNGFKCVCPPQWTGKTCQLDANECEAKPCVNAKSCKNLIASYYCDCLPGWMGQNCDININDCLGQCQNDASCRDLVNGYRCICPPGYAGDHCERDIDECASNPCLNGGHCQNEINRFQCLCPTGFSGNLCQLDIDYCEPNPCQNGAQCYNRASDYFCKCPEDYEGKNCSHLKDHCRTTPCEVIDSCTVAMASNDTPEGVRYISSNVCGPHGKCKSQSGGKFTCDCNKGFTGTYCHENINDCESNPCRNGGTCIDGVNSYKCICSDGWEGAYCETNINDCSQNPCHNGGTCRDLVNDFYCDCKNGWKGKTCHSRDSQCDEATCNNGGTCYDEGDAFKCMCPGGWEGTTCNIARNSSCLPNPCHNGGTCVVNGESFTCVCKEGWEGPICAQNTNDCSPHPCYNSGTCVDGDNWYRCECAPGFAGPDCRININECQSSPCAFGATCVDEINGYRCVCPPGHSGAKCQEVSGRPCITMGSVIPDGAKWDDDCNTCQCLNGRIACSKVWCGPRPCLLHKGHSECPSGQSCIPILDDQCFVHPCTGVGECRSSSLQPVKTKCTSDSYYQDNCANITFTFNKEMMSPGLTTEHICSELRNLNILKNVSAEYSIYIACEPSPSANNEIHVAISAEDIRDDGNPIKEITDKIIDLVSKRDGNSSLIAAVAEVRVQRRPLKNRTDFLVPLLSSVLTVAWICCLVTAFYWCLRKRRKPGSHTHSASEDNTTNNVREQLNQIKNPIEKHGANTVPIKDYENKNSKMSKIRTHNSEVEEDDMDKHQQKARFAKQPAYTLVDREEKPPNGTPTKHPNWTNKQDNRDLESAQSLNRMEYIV
row,Jagged1/293T X Geo mean,Binder
1,16.8,B1
2,18.7,B2
3,16.4,B3
4,16.9,B4

# Molecular target: T1, human Dll1
# Assay: FACS, 15 µg/ml, 293T cells with human Dll1 vs mock
# Description: as §1
row,Dll1/mock ratio,Binder
1,1.09,B1
2,1.17,B2
3,1.06,B3
4,1.15,B4

# Molecular target: T2, human Jagged1
# Assay: FACS, 5 µg/ml, 293T cells with human Jagged1 vs mock
# Description: as §1
row,Jagged1/mock ratio,Binder
1,1.01,B1
2,1.04,B2
3,1.1,B3
4,1.13,B4

# Molecular target: T3, full length human DLL4 (human, UniProt Q9NR61 27-685)
# T3 construct: whole, on cells; also called native DLL4 expressed in HEK293 cells
# Assay: FMAT, hybridoma supernatant, 293T cells with human DLL4
# Description: (§2) Cells diluted in PBS containing 2% FBS were seeded at a density of 3000 expressing and 15000 mock transfected cells per well in 384 well plates (Corning Costar, catalog #3712). Immediately after plating, 15 or 20 μl/well of hybridoma supernatants and 10 μl/well of secondary antibody (Goat anti-human IgG Fc Cy5, final concentration 750 ng/ml) were added and plates incubated for 3 h at room temperature prior to reading the fluorescence on the FMAT 8200 instrument (Applied Biosystems). The binding of human Notch1/Fc chimera (R&D systems, catalog #3647-TK), diluted 1:2 from 2.86 μg/ml was used as a positive control for DLL4 and human Notch3/Fc chimera diluted from 10 μg/ml was used a positive control for binding to Jagged1. Results for 12 hybridoma supernatants showing binding of hybridoma supernatants to human/cynomolgus monkey DLL4 and human Jagged are shown in Table 3.
# T3 sequence (Q9NR61 27-685): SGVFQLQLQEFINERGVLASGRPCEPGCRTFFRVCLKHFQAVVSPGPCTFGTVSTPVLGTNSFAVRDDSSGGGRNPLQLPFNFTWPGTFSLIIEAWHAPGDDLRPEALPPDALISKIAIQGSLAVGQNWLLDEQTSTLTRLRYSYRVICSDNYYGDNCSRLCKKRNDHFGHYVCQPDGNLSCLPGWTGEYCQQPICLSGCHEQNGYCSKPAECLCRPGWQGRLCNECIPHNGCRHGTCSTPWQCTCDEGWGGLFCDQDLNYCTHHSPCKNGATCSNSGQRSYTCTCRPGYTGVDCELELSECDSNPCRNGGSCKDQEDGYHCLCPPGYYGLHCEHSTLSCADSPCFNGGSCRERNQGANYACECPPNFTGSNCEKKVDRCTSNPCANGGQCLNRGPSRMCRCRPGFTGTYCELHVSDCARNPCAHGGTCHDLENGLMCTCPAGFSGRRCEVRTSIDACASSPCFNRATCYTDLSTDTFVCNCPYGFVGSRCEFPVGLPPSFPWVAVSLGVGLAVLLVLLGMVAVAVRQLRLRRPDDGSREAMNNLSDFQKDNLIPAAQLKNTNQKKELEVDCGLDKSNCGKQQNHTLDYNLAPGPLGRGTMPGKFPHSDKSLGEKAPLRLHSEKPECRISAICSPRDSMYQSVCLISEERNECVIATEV
Count,FL1,FL1 x count,Binder
196,10600,2.08e+06,B1
206,11000,2.27e+06,B2
166,9470,1.57e+06,B3
206,10400,2.14e+06,B4

# Molecular target: T2, human Jagged1
# Assay: FMAT, hybridoma supernatant, 293T cells with human Jagged1
# Description: as §2
Count,FL1,FL1 x count,Binder
23,3250,74800,B1
2,4720,9450,B2
1,1940,1940,B3
2,8020,16000,B4

# Molecular target: T3, full length human DLL4
# Assay: FMAT competition, supernatant vs Alexa-647 human Notch1/Fc, 293T cells with human DLL4
# Description: Transfected and untransfected 239T cells were reconstituted in PBS containing 2% FCS and 5000 transfected and 17500 non-transfected cells were plated in 20 μl into wells of a 384-well tissue culture plate (Corning Costar, catalog #3712). Subsequently, 20 μl of hybridoma supernatant was added and plates were incubated at 4° C. for 1 h, at which time 20 μl of Alexa-647 labeled human Notch1/Fc was added at a final concentration of 6.7 ng/ml. After a further 3 h incubation at 4° C., the amount of bound Notch1/Fc was determined by reading the fluorescence in each well using an FMAT 8200 instrument (Applied Biosystems). Results are expressed as % inhibitions with the minimum inhibition in the assay being determined by the effects of non-DLL4 binding supernatants prepared in a similar way as described in example 2, and the maximum inhibition being defined as the signal obtained in the presence of a saturating concentration of unlabeled Notch1/Fc. N.T.=not tested
% inhibition n = 1,% inhibition n = 2,% inhibition n = 3,Mean % inhibition,Binder
105%,71%,146%,107%,B1
106%,145%,147%,133%,B2
105%,120%,142%,122%,B3
98%,99%,113%,110%,B4

# Molecular target: T3, full length human DLL4
# Assay: FMAT competition, purified antibody vs Alexa-647 human Notch1/Fc, 293T cells with human DLL4
# Description: To discriminate between the purified antibodies based upon their ability to prevent the interaction between full-length recombinant DLL4 and soluble Notch1/Fc, the following assays were performed. Transfected and untransfected 239T cells were reconstituted in PBS containing 2% FCS and 5000 transfected and 17500 non-transfected cells were plated in 30 μl into wells of a 384-well tissue culture plate (Corning Costar, catalog #3712). Subsequently, 30 μl of purified antibodies, serial diluted from 5 μg/ml hybridoma supernatant was added and plates were incubated at 4° C. for 1 h, at which time 20 μl of 100 ng/ml Alexa-647 labeled human Notch1/Fc was added. After a further 3 h incubation at 4° C., the amount of bound Notch1/Fc was determined by reading the fluorescence in each well using an FMAT 8200 instrument (Applied Biosystems).
% inhibition at 0.020 nM,% inhibition at 0.070 nM,% inhibition at 0.21 nM,% inhibition at 0.62 nM,% inhibition at 1.9 nM,% inhibition at 5.6 nM,% inhibition at 16.7 nM,IC50,Binder
7%,-2%,5%,13%,58%,124%,123%,2 nM,B1
-1%,5%,-3%,20%,40%,89%,117%,3.33 nM,B2
-1%,7%,-1%,19%,39%,82%,104%,2.94 nM,B3
-7%,24%,21%,46%,91%,129%,120%,0.99 nM,B4
